This experiment concerns the target T1, BARD1-V5 WT (BRCA1-Associated RING Domain protein 1) (UniProt Q99728 1-777).
T1 construct: BARD1 (BRCA1-Associated RING Domain protein 1), wild type; also called pcDNA6.2-BARD1-V5; source: HEK293FT, transiently co-transfected, in lysate
T1 sequence (looked up): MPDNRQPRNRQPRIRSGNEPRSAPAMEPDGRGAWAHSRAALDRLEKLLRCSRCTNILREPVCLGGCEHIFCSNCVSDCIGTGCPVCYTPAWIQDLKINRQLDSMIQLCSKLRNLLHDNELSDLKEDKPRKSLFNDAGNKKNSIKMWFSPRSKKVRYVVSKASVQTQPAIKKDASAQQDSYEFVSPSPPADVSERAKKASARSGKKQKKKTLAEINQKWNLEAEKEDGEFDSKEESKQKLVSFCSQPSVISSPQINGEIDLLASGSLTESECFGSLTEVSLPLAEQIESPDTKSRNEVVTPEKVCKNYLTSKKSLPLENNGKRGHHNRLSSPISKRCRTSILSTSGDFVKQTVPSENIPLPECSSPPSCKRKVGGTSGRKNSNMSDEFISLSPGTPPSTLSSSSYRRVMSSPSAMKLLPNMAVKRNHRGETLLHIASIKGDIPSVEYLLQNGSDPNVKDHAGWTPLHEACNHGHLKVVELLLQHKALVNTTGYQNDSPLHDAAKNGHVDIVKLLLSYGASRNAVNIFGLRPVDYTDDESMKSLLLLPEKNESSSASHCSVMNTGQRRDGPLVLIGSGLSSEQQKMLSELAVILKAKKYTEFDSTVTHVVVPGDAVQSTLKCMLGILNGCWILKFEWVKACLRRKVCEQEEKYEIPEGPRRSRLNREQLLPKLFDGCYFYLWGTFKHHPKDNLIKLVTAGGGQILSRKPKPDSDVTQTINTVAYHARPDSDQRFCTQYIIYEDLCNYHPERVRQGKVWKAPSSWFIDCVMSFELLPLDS
Description: co-IP; HEK293FT co-transfected with BRCA1 WT or variant and BARD1-V5; 2 mg lysate protein incubated 90 min at 4 °C with V5 antibody coupled to Dynabeads Protein G; non-denaturing elution; BRCA1 in the IP detected by anti-BRCA1 blot, normalised to the anti-V5 signal, % of WT. The conditions noted are these: partners not purified.

B1: mCherry-tagged wild type (WT) full-length human BRCA1 protein (natural protein, UniProt P38398 1-1863, looked up)
chain: MDLSALRVEEVQNVINAMQKILECPICLELIKEPVSTKCDHIFCKFCMLKLLNQKKGPSQCPLCKNDITKRSLQESTRFSQLVEELLKIICAFQLDTGLEYANSYNFAKKENNSPEHLKDEVSIIQSMGYRNRAKRLLQSEPENPSLQETSLSVQLSNLGTVRTLRTKQRIQPQKTSVYIELGSDSSEDTVNKATYCSVGDQELLQITPQGTRDEISLDSAKKAACEFSETDVTNTEHHQPSNNDLNTTEKRAAERHPEKYQGSSVSNLHVEPCGTNTHASSLQHENSSLLLTKDRMNVEKAEFCNKSKQPGLARSQHNRWAGSKETCNDRRTPSTEKKVDLNADPLCERKEWNKQKLPCSENPRDTEDVPWITLNSSIQKVNEWFSRSDELLGSDDSHDGESESNAKVADVLDVLNEVDEYSGSSEKIDLLASDPHEALICKSERVHSKSVESNIEDKIFGKTYRKKASLPNLSHVTENLIIGAFVTEPQIIQERPLTNKLKRKRRPTSGLHPEDFIKKADLAVQKTPEMINQGTNQTEQNGQVMNITNSGHENKTKGDSIQNEKNPNPIESLEKESAFKTKAEPISSSISNMELELNIHNSKAPKKNRLRRKSSTRHIHALELVVSRNLSPPNCTELQIDSCSSSEEIKKKKYNQMPVRHSRNLQLMEGKEPATGAKKSNKPNEQTSKRHDSDTFPELKLTNAPGSFTKCSNTSELKEFVNPSLPREEKEEKLETVKVSNNAEDPKDLMLSGERVLQTERSVESSSISLVPGTDYGTQESISLLEVSTLGKAKTEPNKCVSQCAAFENPKGLIHGCSKDNRNDTEGFKYPLGHEVNHSRETSIEMEESELDAQYLQNTFKVSKRQSFAPFSNPGNAEEECATFSAHSGSLKKQSPKVTFECEQKEENQGKNESNIKPVQTVNITAGFPVVGQKDKPVDNAKCSIKGGSRFCLSSQFRGNETGLITPNKHGLLQNPYRIPPLFPIKSFVKTKCKKNLLEENFEEHSMSPEREMGNENIPSTVSTISRNNIRENVFKEASSSNINEVGSSTNEVGSSINEIGSSDENIQAELGRNRGPKLNAMLRLGVLQPEVYKQSLPGSNCKHPEIKKQEYEEVVQTVNTDFSPYLISDNLEQPMGSSHASQVCSETPDDLLDDGEIKEDTSFAENDIKESSAVFSKSVQKGELSRSPSPFTHTHLAQGYRRGAKKLESSEENLSSEDEELPCFQHLLFGKVNNIPSQSTRHSTVATECLSKNTEENLLSLKNSLNDCSNQVILAKASQEHHLSEETKCSASLFSSQCSELEDLTANTNTQDPFLIGSSKQMRHQSESQGVGLSDKELVSDDEERGTGLEENNQEEQSMDSNLGEAASGCESETSVSEDCSGLSSQSDILTTQQRDTMQHNLIKLQQEMAELEAVLEQHGSQPSNSYPSIISDSSALEDLRNPEQSTSEKAVLTSQKSSEYPISQNPEGLSADKFEVSADSSTSKNKEPGVERSSPSKCPSLDDRWYMHSCSGSLQNRNYPSQEELIKVVDVEEQQLEESGPHDLTETSYLPRQDLEGTPYLESGISLFSDDPESDPSEDRAPESARVGNIPSSTSALKVPQLKVAESAQSPAAAHTTDTAGYNAMEESVSREKPELTASTERVNKRMSMVVSGLTPEEFMLVYKFARKHHITLTNLITEETTHVVMKTDAEFVCERTLKYFLGIAGGKWVVSYFWVTQSIKERKMLNEHDFEVRGDVVNGRNHQGPKRARESQDRKIFRGLEICCYGPFTNMPTDQLEWMVQLCGASVVKELSSFTLGTGVHPIVVVQPDAWTEDNGFHAIGQMCEAPVVTREWVLDSVALYQCQELDTYLIPQIPHSHY
notes: BRCA1, human, full-length, wild type; also called BRCA1 WT; mCherry-BRCA1; source: HEK293FT, transiently co-transfected, in lysate
With B1, the “Co-IP BARD1 (% of WT)” value is 100 % of WT.

B2: BRCA1 p.Cys39Tyr (full-length, mCherry-tagged; pathogenic control variant, RING domain) (natural protein, human, UniProt P38398 1-1863, looked up)
chain: MDLSALRVEEVQNVINAMQKILECPICLELIKEPVSTKYDHIFCKFCMLKLLNQKKGPSQCPLCKNDITKRSLQESTRFSQLVEELLKIICAFQLDTGLEYANSYNFAKKENNSPEHLKDEVSIIQSMGYRNRAKRLLQSEPENPSLQETSLSVQLSNLGTVRTLRTKQRIQPQKTSVYIELGSDSSEDTVNKATYCSVGDQELLQITPQGTRDEISLDSAKKAACEFSETDVTNTEHHQPSNNDLNTTEKRAAERHPEKYQGSSVSNLHVEPCGTNTHASSLQHENSSLLLTKDRMNVEKAEFCNKSKQPGLARSQHNRWAGSKETCNDRRTPSTEKKVDLNADPLCERKEWNKQKLPCSENPRDTEDVPWITLNSSIQKVNEWFSRSDELLGSDDSHDGESESNAKVADVLDVLNEVDEYSGSSEKIDLLASDPHEALICKSERVHSKSVESNIEDKIFGKTYRKKASLPNLSHVTENLIIGAFVTEPQIIQERPLTNKLKRKRRPTSGLHPEDFIKKADLAVQKTPEMINQGTNQTEQNGQVMNITNSGHENKTKGDSIQNEKNPNPIESLEKESAFKTKAEPISSSISNMELELNIHNSKAPKKNRLRRKSSTRHIHALELVVSRNLSPPNCTELQIDSCSSSEEIKKKKYNQMPVRHSRNLQLMEGKEPATGAKKSNKPNEQTSKRHDSDTFPELKLTNAPGSFTKCSNTSELKEFVNPSLPREEKEEKLETVKVSNNAEDPKDLMLSGERVLQTERSVESSSISLVPGTDYGTQESISLLEVSTLGKAKTEPNKCVSQCAAFENPKGLIHGCSKDNRNDTEGFKYPLGHEVNHSRETSIEMEESELDAQYLQNTFKVSKRQSFAPFSNPGNAEEECATFSAHSGSLKKQSPKVTFECEQKEENQGKNESNIKPVQTVNITAGFPVVGQKDKPVDNAKCSIKGGSRFCLSSQFRGNETGLITPNKHGLLQNPYRIPPLFPIKSFVKTKCKKNLLEENFEEHSMSPEREMGNENIPSTVSTISRNNIRENVFKEASSSNINEVGSSTNEVGSSINEIGSSDENIQAELGRNRGPKLNAMLRLGVLQPEVYKQSLPGSNCKHPEIKKQEYEEVVQTVNTDFSPYLISDNLEQPMGSSHASQVCSETPDDLLDDGEIKEDTSFAENDIKESSAVFSKSVQKGELSRSPSPFTHTHLAQGYRRGAKKLESSEENLSSEDEELPCFQHLLFGKVNNIPSQSTRHSTVATECLSKNTEENLLSLKNSLNDCSNQVILAKASQEHHLSEETKCSASLFSSQCSELEDLTANTNTQDPFLIGSSKQMRHQSESQGVGLSDKELVSDDEERGTGLEENNQEEQSMDSNLGEAASGCESETSVSEDCSGLSSQSDILTTQQRDTMQHNLIKLQQEMAELEAVLEQHGSQPSNSYPSIISDSSALEDLRNPEQSTSEKAVLTSQKSSEYPISQNPEGLSADKFEVSADSSTSKNKEPGVERSSPSKCPSLDDRWYMHSCSGSLQNRNYPSQEELIKVVDVEEQQLEESGPHDLTETSYLPRQDLEGTPYLESGISLFSDDPESDPSEDRAPESARVGNIPSSTSALKVPQLKVAESAQSPAAAHTTDTAGYNAMEESVSREKPELTASTERVNKRMSMVVSGLTPEEFMLVYKFARKHHITLTNLITEETTHVVMKTDAEFVCERTLKYFLGIAGGKWVVSYFWVTQSIKERKMLNEHDFEVRGDVVNGRNHQGPKRARESQDRKIFRGLEICCYGPFTNMPTDQLEWMVQLCGASVVKELSSFTLGTGVHPIVVVQPDAWTEDNGFHAIGQMCEAPVVTREWVLDSVALYQCQELDTYLIPQIPHSHY
notes: BRCA1, human, full-length, pathogenic control missense variant in the RING domain, introduced in the WT plasmid; Made by site-directed mutagenesis of the plasmid of m1; all other places and c.116G > A say p.Cys39Tyr; also called c.116G > A; source: HEK293FT, transiently co-transfected, in lysate
As to B2, the “Co-IP BARD1 (% of WT)” value was 8 % of WT.
